Article PMC9482650, “Quantitative fragmentomics allow affinity mapping of interactomes” (Nature Communications, 2022)

Experiments:
Experiment in all cases: holdup assay
Parameters in all cases: key: below the threshold = too weak to quantify, mostly under pKd 3.1 to 4
Details in all cases: plain residues with an end cap or a label only (N-terminal biotin on a linker: ttds)
PDZRN3_2, Q9UPQ7 = biological target: T1, PDZRN3_2, Q9UPQ7
T1 sequence (Q9UPQ7 414-513, limits assumed, looked up): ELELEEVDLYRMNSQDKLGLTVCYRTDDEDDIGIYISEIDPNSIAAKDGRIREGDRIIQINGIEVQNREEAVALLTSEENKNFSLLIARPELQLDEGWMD

MAGI3_5, Q5TCQ9 = biological target: MAGI3_5, Q5TCQ9
Chain of MAGI3_5, Q5TCQ9 (Q5TCQ9 847-941): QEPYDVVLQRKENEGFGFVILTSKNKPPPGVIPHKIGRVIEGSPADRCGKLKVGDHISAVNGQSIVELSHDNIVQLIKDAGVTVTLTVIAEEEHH

MAGI2_1, Q86UL8 = biological target: T2, MAGI2_1, Q86UL8
T2 sequence (Q86UL8 12-111, limits assumed, looked up): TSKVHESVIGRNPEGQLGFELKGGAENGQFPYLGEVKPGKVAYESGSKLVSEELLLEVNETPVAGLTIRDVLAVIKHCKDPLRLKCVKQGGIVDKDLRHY

GRIP2_4, Q9C0E4 = biological target: GRIP2_4, Q9C0E4
Chain of GRIP2_4, Q9C0E4 (Q9C0E4 446-548): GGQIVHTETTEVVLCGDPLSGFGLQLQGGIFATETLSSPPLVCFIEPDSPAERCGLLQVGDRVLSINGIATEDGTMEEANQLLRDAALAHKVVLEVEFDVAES

MPDZ_2, O75970 = biological target: T3, MPDZ_2, O75970
T3 sequence (O75970 252-347, limits assumed, looked up): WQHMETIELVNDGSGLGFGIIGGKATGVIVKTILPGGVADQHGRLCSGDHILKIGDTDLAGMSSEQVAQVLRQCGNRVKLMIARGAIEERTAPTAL

SHROOM3, Q8TF72 = biological target: T4, SHROOM3, Q8TF72
T4 sequence (Q8TF72 20-120, limits assumed, looked up): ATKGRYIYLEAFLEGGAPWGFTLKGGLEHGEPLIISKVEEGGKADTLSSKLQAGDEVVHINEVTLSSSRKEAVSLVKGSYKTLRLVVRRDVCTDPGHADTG

USH1C_2, Q9Y6N9 = biological target: T5, USH1C_2, Q9Y6N9
T5 sequence (Q9Y6N9 206-303, limits assumed, looked up): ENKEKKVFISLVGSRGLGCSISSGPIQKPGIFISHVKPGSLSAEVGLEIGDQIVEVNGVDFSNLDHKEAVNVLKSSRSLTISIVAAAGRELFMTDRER

LMO7, Q8WWI1 = biological target: LMO7, Q8WWI1
Chain of LMO7, Q8WWI1 (Q8WWI1 1037-1138): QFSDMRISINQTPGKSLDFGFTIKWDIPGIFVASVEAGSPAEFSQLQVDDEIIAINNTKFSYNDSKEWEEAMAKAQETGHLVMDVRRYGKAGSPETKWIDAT

PDZD2_3, O15018 = biological target: T6, PDZD2_3, O15018
T6 sequence (O15018 581-682, limits assumed, looked up): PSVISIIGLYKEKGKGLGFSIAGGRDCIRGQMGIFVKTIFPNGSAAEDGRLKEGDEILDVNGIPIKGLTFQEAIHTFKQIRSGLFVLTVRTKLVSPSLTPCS

IL16_2, Q14005 = biological target: IL16_2, Q14005
Chain of IL16_2, Q14005 (Q14005 350-450): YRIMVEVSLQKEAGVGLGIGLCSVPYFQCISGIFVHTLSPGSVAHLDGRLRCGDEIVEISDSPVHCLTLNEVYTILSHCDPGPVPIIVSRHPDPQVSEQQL

AHNAK2, Q8IVF2 = biological target: AHNAK2, Q8IVF2
Chain of AHNAK2, Q8IVF2 (Q8IVF2 108-193): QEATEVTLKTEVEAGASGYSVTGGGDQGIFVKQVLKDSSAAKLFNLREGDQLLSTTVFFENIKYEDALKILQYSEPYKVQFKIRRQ

MAGIX, Q9H6Y5 = biological target: MAGIX, Q9H6Y5
Chain of MAGIX, Q9H6Y5 (Q9H6Y5 118-211): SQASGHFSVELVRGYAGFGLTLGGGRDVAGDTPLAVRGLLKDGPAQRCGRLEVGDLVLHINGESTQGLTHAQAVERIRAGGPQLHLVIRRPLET

MAGI3_6, Q5TCQ9 = biological target: MAGI3_6, Q5TCQ9
Chain of MAGI3_6, Q5TCQ9 (Q5TCQ9 1014-1103): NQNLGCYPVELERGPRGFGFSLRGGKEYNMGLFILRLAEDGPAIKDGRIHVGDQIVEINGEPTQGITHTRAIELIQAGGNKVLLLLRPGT

MAST1, Q9Y2H9 = biological target: MAST1, Q9Y2H9
Chain of MAST1, Q9Y2H9 (Q9Y2H9 962-1065): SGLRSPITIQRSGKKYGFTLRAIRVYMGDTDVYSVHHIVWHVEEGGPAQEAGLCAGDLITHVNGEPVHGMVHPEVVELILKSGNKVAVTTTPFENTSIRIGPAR

PDZD2_1, O15018 = biological target: T7, PDZD2_1, O15018
T7 sequence (O15018 80-192, limits assumed, looked up): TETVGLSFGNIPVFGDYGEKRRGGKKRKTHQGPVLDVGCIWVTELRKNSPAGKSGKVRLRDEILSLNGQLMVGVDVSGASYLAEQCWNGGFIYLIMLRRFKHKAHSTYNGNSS

PTPN13_5, Q12923 = biological target: T8, PTPN13_5, Q12923
T8 sequence (Q12923 1877-1975, limits assumed, looked up): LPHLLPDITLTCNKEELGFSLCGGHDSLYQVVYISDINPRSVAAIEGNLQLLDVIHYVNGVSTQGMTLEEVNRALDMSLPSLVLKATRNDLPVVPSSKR

PDZD2_6, O15018 = biological target: T9, PDZD2_6, O15018
T9 sequence (O15018 2745-2839, limits assumed, looked up): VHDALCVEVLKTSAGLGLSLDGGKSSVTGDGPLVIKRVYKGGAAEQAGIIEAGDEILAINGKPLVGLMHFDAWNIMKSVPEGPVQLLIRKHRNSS

MPDZ_3, O75970 = biological target: T10, MPDZ_3, O75970
T10 sequence (O75970 372-473, limits assumed, looked up): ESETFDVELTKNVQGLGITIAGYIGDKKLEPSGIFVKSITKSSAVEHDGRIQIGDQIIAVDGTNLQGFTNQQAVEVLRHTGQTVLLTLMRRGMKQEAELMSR

USH1C_1, Q9Y6N9 = biological target: T11, USH1C_1, Q9Y6N9
T11 sequence (Q9Y6N9 82-179, limits assumed, looked up): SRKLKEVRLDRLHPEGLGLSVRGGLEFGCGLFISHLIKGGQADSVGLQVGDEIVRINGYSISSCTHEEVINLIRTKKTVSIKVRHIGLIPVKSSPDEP

TJP1_1, Q07157 = biological target: TJP1_1, Q07157
Chain of TJP1_1, Q07157 (Q07157 18-120): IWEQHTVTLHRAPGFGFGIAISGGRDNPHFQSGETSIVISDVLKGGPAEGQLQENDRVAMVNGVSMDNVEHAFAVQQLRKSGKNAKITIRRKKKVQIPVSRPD

NHERF2_1, Q15599 = biological target: NHERF2_1, Q15599
Chain of NHERF2_1, Q15599 (Q15599 9-91): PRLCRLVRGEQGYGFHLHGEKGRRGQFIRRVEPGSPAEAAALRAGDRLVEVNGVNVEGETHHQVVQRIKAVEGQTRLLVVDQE

PDZD7_1, Q9H5P4 = biological target: T12, PDZD7_1, Q9H5P4
T12 sequence (Q9H5P4 81-178, limits assumed, looked up): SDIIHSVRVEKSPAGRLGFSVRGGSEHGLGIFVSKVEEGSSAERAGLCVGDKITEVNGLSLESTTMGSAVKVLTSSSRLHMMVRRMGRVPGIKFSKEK

PDZRN4_2, Q6ZMN7 = biological target: PDZRN4_2, Q6ZMN7
Chain of PDZRN4_2, Q6ZMN7 (Q6ZMN7 389-498): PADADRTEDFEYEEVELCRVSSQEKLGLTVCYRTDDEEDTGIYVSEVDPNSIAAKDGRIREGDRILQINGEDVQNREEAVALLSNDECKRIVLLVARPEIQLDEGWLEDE

GIPC1, O14908 = biological target: T13, GIPC1, O14908
T13 sequence (O14908 128-223, limits assumed, looked up): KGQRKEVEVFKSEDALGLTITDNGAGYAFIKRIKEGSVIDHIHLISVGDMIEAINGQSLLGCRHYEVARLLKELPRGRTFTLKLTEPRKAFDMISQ

| Binder | pKd (PDZRN3_2, Q9UPQ7) | pKd (MAGI3_5, Q5TCQ9) | pKd (MAGI2_1, Q86UL8) | pKd (GRIP2_4, Q9C0E4) | pKd (MPDZ_2, O75970) | pKd (SHROOM3, Q8TF72) | pKd (USH1C_2, Q9Y6N9) | pKd (LMO7, Q8WWI1) | pKd (PDZD2_3, O15018) | pKd (IL16_2, Q14005) | pKd (AHNAK2, Q8IVF2) | pKd (MAGIX, Q9H6Y5) | pKd (MAGI3_6, Q5TCQ9) | pKd (MAST1, Q9Y2H9) | pKd (PDZD2_1, O15018) | pKd (PTPN13_5, Q12923) | pKd (PDZD2_6, O15018) | pKd (MPDZ_3, O75970) | pKd (USH1C_1, Q9Y6N9) | pKd (TJP1_1, Q07157) | other results |
| --- | --- | --- | --- | --- | --- | --- | --- | --- | --- | --- | --- | --- | --- | --- | --- | --- | --- | --- | --- | --- | --- |
| DPLTPSRSQL [DGKK, Q5KSL6] | 4.11 | below the threshold | below the threshold | below the threshold | below the threshold | below the threshold | below the threshold | below the threshold | below the threshold | below the threshold | below the threshold | below the threshold | below the threshold | 4.16 | below the threshold | below the threshold | below the threshold | below the threshold | below the threshold | below the threshold | pKd (NHERF2_1, Q15599): below the threshold; pKd (PDZD7_1, Q9H5P4): below the threshold; pKd (PDZRN4_2, Q6ZMN7): 4.05; pKd (GIPC1, O14908): below the threshold |
| IQREDQETAV [DGKZ, Q13574] | below the threshold | 4.51 | below the threshold | below the threshold | below the threshold | below the threshold | below the threshold | below the threshold | below the threshold | below the threshold | below the threshold | below the threshold | below the threshold | 4.57 | below the threshold | below the threshold | below the threshold | below the threshold | below the threshold | below the threshold | pKd (NHERF2_1, Q15599): below the threshold; pKd (PDZD7_1, Q9H5P4): below the threshold; pKd (PDZRN4_2, Q6ZMN7): below the threshold; pKd (GIPC1, O14908): 4.92 |
| SEKHFRETEV [HTLV1-TAX1, P03409] | below the threshold | 4.86 | below the threshold | below the threshold | below the threshold | below the threshold | below the threshold | below the threshold | below the threshold | below the threshold | below the threshold | below the threshold | 4.54 | below the threshold | below the threshold | below the threshold | below the threshold | 3.92 | below the threshold | below the threshold | pKd (NHERF2_1, Q15599): 3.95; pKd (PDZD7_1, Q9H5P4): 3.85; pKd (PDZRN4_2, Q6ZMN7): below the threshold; pKd (GIPC1, O14908): 4.86 |
| HIVEALETDV [PBK, Q96KB5] | below the threshold | below the threshold | below the threshold | below the threshold | below the threshold | below the threshold | below the threshold | below the threshold | below the threshold | below the threshold | below the threshold | below the threshold | 4.62 | 5.15 | below the threshold | below the threshold | below the threshold | below the threshold | below the threshold | below the threshold | pKd (NHERF2_1, Q15599): below the threshold; pKd (PDZD7_1, Q9H5P4): below the threshold; pKd (PDZRN4_2, Q6ZMN7): below the threshold; pKd (GIPC1, O14908): 5.37 |
| MERLRVETDV [ARHGEF16, Q5VV41] | below the threshold | below the threshold | below the threshold | below the threshold | below the threshold | below the threshold | below the threshold | below the threshold | below the threshold | below the threshold | below the threshold | below the threshold | below the threshold | 4.39 | below the threshold | below the threshold | below the threshold | below the threshold | below the threshold | below the threshold | pKd (NHERF2_1, Q15599): below the threshold; pKd (PDZD7_1, Q9H5P4): below the threshold; pKd (PDZRN4_2, Q6ZMN7): below the threshold; pKd (GIPC1, O14908): 4.71 |
